According to the DeepSol protein solubility set:

Experiment: soluble on expression in E. coli; label from the status in PepcDB or PDB records

Soluble on expression in E. coli, not soluble:
MGSDKIHHHHHHMATRATQISTLVEEIANNPNLKEDLKILPSNYTFEVPKTIWKIRSTESKYVALQFPEGLIMYACVIADILEKYTGCDTVIMGDVTYGACCVDDYTAKSMGCDLLVHYGHSCLVPIQNTDGIAMLYVFVNIHINLSHLIDCVKENFQGKRLVVVSTVQFIPSLQTLRTTFNKDDSSIRIDIPQCKPLSPGEVLGCTSPRLDASKYDAIVYLGDGRFHLESIMIHNPEIEAFQYDPYSRKLTREFYDHDLMRKNRIGSIEIARKCTTFGLIQGTLGRQGNLKVVEELEAQLERKGKKFLRVLLSEIFPEKLAMFPEVDCWVQVACPRLSIDWGTQFPKPLLYPFELAVALDNISVPSDHWPMDYYSNDSLGPWTNNNEANRPKREKRKPHIVVRTEAS
MGSDKIHHHHHHMAVVFPSKEWMEELYKKVNADEEYRRVAANWEGDYLCVVELDEEALRDFQNPKVLRGFLGMLDSIPKEKRERFRGTPSEKLLEALGLSLDSDLSDANVEEIAKKIAENPDKILEAAKGASLNIWMDFWHGDFRNIEVAAPGEHEDAKFKLIGPYAVFKQLVMGKADAITLVVSGKLKLQGDMGYMMRNMATVKKFTDLMASIPIET
MGSDKIHHHHHHMAYGGRITLNVRIALVGEELEIRENVNIEIEEGIITHIGNGFSSEGITFKNGILIPGIVNAHVHSADFICQEMGYNMPISKVVGDPHSVKYECFAKNTKESIMNSIERFVLRARELGSNVMIDFREQGLEGSLISSTIKKKMATNGVKYYFLGRLEEDEFKDIRNLNSLYKIADGYGLSSAFSTSEIELIKHVFNNKIRSVHVSETIKHWLRDDLEYVMKRYEPNLIIHGTYLSEEEIDIMRYRKASIVYCPRSNLWFSVGIPKVINGLKSGVNLLIGTDNGGVLDPDMWKEMETLLLISRVQDPLSDHSLQILKASTINAYKFLGIRGWIEEGNPIEAGLLVLEGDSTGILNSNNKYIGIIKRGNKIIYNLGAIQKII
MGSDKIHHHHHHMAYIIPSDISAAALAGAHGPELETLAGLKTALSSDYTVYHGVHWSYDYRGQIRFGEADFVVVNQAGEMVVIEQKNGRLEDTAEGLIKVYGNTRKDVQSQVRRSVENIREKMRAASGSPPPSIDYLIYCPDHRLVRLNAVGLDVSRIVSGATPADLAGRIRQILPPGSKGGATENVHAFLRDAFQVVADVHAHVKAHERSYTRLIGGIADIVDSIEMAPLRLRLRGAPGSGKTVVAHRLYERALARGRRPLMVCFNHPLAERLAASVSPGGRVTTWHGLCVNFLAERGLKPNFEDAARNRSFWPDLAELIIAEPVPDAWRFDTLIVDEGQDFEPGWIDILHLFLTDAADIVWLEDPAQELRGIGRNELPGFVGLSVRTNYRTPQSIARFVKRALGADFVAANDLPGLGVGVSTYGLEDEQAVHLSRIVPALVRQGFAPDQIVIVTLKGATTSVLSQMTRIGTHEVSHFTGAYGDDGRQVRSRGLIRFESVQRFKGQQAPAVIVVDVNPASDPNKAERHLRQLFSAFTRATIRLEILAQKDNPMTARLLGSL
MGSDKIHHHHHHMAYRKQLTRLKAPYLKRILLDPGRVEDWEKYPWNLPLFRGREFELEFTAPITIIVGENGTGKSTLLEAIGALAGYDEAGGGKGYMPVDHSRAIDKSGAALADNFRCHWLPKVTAGWFFRAESFYSVARYLDEAARESGATPPDFLSWSHGEGFIRFFEERCRRQGIYILDEPESALSPSRQIELLKMLRRMDQSGTAQVIMATHSPLLMACPGARLFRISRFGLEPADFRDTDHFRMLRDFSNDPDGFLAEALYEDEA
MGSDKIHHHHHHMCPLMAENHEVIEEGNSSELPLSAEDAKKLTELAENVLQGWDVQAEKIDVIQGNQMALVWKVHTDSGAVCLKRIHRPEKKALFSIFAQDYLAKKGMNVPGILPNKKGSLYSKHGSFLFVVYDWIEGRPFELTVKQDLEFIMKGLADFHTASVGYQPPNGVPIFTKLGRWPNHYTKRCKQMETWKLMAEAEAAAPFSQLYLQEIDGFIEDGLRIKDRLLQSTYVPWTEQLKKSPNLCHQDYGTGNTLLGENEQIWVIDLDTVSFDLPIRDLRKMIIPLLDTTGVWDDETFNVMLNAYESRAPLTEEQKQVMFIDMLFPYELYDVIREKYVRKSALPKEELESAFEYERIKANALRQLI
